Measurements from publication PMC6656915, “The MmpL3 interactome reveals a complex crosstalk between cell envelope biosynthesis and cell elongation and division in mycobacteria” (Scientific Reports, 2019).

How the values were obtained:
[1] = target: MmpL3 protein from M. tuberculosis, C-terminally hexahistidine-tagged, devoid of gfp fusion (M. tuberculosis) (UniProt P9WJV5); assay: SPR; MmpL3 immobilised on CM5 chip; analytes injected at two-fold increasing concentrations from 0.6 µM up to 10 µM, 10 µL/min for 30 sec, dissociation 180 sec, 25 °C; 20 mM HEPES pH 7.4, 150 mM NaCl, 0.2% Triton X-100 (0.03% DDM instead for AftD); global fit to the 1:1 Langmuir binding model
[2] = target: T1, MmpL3 from M. tuberculosis, C-terminally hexahistidine-tagged, purified (M. tuberculosis, UniProt P9WJV5 1-944); assay: SPR
T1 chain: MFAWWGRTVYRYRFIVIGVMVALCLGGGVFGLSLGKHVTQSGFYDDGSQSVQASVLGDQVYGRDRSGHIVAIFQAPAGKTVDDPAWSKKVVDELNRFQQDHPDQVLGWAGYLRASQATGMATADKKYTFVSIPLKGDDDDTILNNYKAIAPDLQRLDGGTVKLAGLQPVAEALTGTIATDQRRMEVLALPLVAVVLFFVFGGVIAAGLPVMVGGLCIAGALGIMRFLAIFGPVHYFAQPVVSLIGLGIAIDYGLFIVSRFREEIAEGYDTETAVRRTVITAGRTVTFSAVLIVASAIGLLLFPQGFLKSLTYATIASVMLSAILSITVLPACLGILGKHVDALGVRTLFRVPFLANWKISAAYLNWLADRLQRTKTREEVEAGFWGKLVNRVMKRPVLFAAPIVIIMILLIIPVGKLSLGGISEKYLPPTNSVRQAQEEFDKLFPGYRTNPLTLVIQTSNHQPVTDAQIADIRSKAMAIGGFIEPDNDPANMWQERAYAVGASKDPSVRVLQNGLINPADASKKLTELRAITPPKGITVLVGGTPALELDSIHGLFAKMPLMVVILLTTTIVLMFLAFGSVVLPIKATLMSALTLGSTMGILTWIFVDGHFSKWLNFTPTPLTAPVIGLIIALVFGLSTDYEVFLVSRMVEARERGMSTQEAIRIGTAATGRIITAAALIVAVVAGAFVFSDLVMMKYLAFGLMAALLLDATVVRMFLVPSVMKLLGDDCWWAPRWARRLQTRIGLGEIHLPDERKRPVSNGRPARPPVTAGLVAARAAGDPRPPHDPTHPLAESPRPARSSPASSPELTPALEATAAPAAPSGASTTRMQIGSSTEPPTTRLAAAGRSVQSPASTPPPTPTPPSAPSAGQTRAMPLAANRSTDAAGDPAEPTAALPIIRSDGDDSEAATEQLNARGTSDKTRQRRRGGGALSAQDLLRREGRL

[3] = target: T2, MmpL3 protein from M. tuberculosis, C-terminally hexahistidine-tagged, devoid of gfp fusion (M. tuberculosis, UniProt P9WJV5 1-944); assay: SPR; MmpL3 immobilised on CM5 chip; analytes injected at two-fold increasing concentrations from 0.6 µM up to 10 µM, 10 µL/min for 30 sec, dissociation 180 sec, 25 °C; 20 mM HEPES pH 7.4, 150 mM NaCl, 0.2% Triton X-100 (0.03% DDM instead for AftD); global fit to the 1:1 Langmuir binding model; settings: both partners purified
T2 construct: MmpL3 (Rv0206c), mycolic acid (TMM) transporter of M. tuberculosis; also called MmpL3tb; Rv0206c
T2 sequence: T1 chain

## AftD from Mycobacterium abscessus (enzyme)
[1]
  Kd: 170 nM
  koff: 0.00335 s⁻¹
  kon: 19400 M⁻¹ s⁻¹

B1: Rv0207c from M. tuberculosis H37Rv with C-terminal hexahistidine tag (natural protein)
chain: MSLTEDVTSQTSESLARHSVLAEDLSQDGLTSLGAPGARVLLVWDAPNLDMGLGSILGRRPTALERPRFDALGRWLLARTAEIVAGRPGISTEPEATVFTNIAPGSAEVVRPWVDALRNVGFAVFAKPKVDEDSDVDRDMLAHIDERYREGLAALVVASADGQAFRQPLEAVARSGTPVQVLGFREHASWALASDTLEFVDLEDIAGVFREPLPRIGLDSLPEQGAWLQPFRPLSSLLTSRV
notes: Rv0207c, conserved protein of unknown function of M. tuberculosis H37Rv
[2]
  Kd: 152 nM
[3]
  Kd: 150 nM
  koff: 0.00227 s⁻¹
  kon: 14900 M⁻¹ s⁻¹

B2: AftD from Mycobacterium abscessus, N-terminal 10-histidine tag, purified (natural protein)
chain: MTYRLDSSALSRRWLAVAAAVSLLLTFSQSPGQISPDTKLDLAINPLRFAARALNLWSSDLPFGQAQNQAYGYLFPHGAFFSLGHLLGVPAWVTQRLWWALLIVAGFWGLIRVAEALGIGTRGSRIIAAVAFALSPRVLTTLGAISSETLPMMLAPWVLLPLILTFQGRMSPRRAAALSAVAVALMGAVNAVATALACGVAVIWWLAHRPNRTWWRFTAWWIPCLALASTWWIVALLIFGKISPKFLDFIESSGVTTQWTSLTEVLRGTDSWTPFVAPTATAGSSLVTQSAMVIATTMLAAAGMAGLAMRGMPARGRLVAVLLIGLVLLTAGYTGALGSPIAQQIQFFLDDGGTPLRNVHKLEPLIRLPLILGLAHALSRIPLPASVPVRQWLSALARPERNRAVAFAIVLLVALAASTSLAWTGRLVPRGGFDAIPGYWNDTAHWLADHDTGGRALVVPGAPFAIQTWGLTRDEPLQALGQTPWGVRDSIPLTPPETIRAIDSVQQLFAAGRPSDGLADTLREQGISYLVVRNDLDPDTSRSARPILVHHTIEGSPGLTKVAQFGDPVGAGAVEGFVADSDLRPQYPAVEIYAVGANDHDGEPYFTDIDTMPRVAGGPEALLRLNERRRQLNEPPLGPSLLATDAAQAGLRPGPAVVTDTPLARETDYGRVDDHSSAIRAPGDKRRTFNRVPDYPATGVPLVNGSWTGGTITASSSASDSTALPNVAPGTSTAAAIDRDNATSWVSSSLEAALGQWIRIDLDRPITNAILTVTPSATALGAQVRRLEVETDNGTTSVRFDEPGQPLNIALRPGETTWVKVTATGTDDGTSGVQFGVTELSLTQYDAAGFAHTVDLRHSATVPPPPAGDNPLGWDLGSPLQGRSGCAPSPQRLRCAATLSLAPEEPGTFIRTLTVPQPVSLTPRLWVRARPGPQLRDLIQQPGTTVATGDSDVIDPQGSSYAATDGDPGTVWTAPQDSVQRLHLPSLVIKLPKPTAIGAIRLRPSRTEVPAHPKQVAINLGDGPQLRSIDPKADVTELALHPSITDTITVTVTDWTDIIDRTALGFDQLKPPGIAEVIALDADHRPIAPADNAANSKRKITIGCNRGPILALAGRFVPMSITATVRELLDGTVIQATPCDTSPIATGAGIQDVTVNPSQQFIVDGVQLTAAATEPASATMTVAPKGAWGPDRREVTAEPSAHERVLAVPESINPGWAARDAQGHLLTPVRVNGWQQGWVLPAGDGGKITLTFGLNTWYRAGLFGGLALLPILACLALLPARGRTTLPPVAPWCAGPAAGVAVLAALTAISGISGMAVGLAALAFKVWTRWPLRAVTAAGVYLAGGSLLLAGAALSRHPWRSVGGYTGHSWWIQLLALISVASVALAAVRLPSRRCWKRRSASREGDSTSA
[2]
  Kd: 172 nM

B3: CrgA from M. tuberculosis H37Rv with C-terminal hexahistidine tag (natural protein)
chain: MPKSKVRKKNDFTVSAVSRTPMKVKVGPSSVWFVSLFIGLMLIGLIWLMVFQLAAIGSQAPTALNWMAQLGPWNYAIAFAFMITGLLLTMRWH
notes: CrgA (Rv0011c), cell division regulatory protein of M. tuberculosis H37Rv; also called Rv0011c
[3]
  Kd: 470 nM
  koff: 0.0015 s⁻¹
  kon: 3180 M⁻¹ s⁻¹
